From the supplement of paper PMC9170038

System: MS2 coat protein
Experiment: apparent KD of MS2 coat protein; designed switch direction (-1 OFF switch, 1 ON switch): 1; higher = weaker reporter binding
In short: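 The reported apparent KD is a per-design median over clusters, from curve fits of normalised cluster fluorescence. Protein titrations used SNAP-549-labelled MS2 coat protein, doubled from 0.7 or 1.5 nM to 3 µM, in Tris-HCl pH 7.5 buffer with KCl, MgCl2, BSA, DTT, tRNA and Tween-20, with no input, 200 uM small-molecule ligand, or an oligonucleotide input. The RNA switches were transcribed on Illumina chips by stalled E. coli RNA polymerase.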

[1] = input ligand: microRNA oligo, concentration not stated
[2] = Eterna round: R95, input ligand: FMN 200 uM
[3] = Eterna round: R95, input ligand: microRNA oligo, concentration not stated
[4] = Eterna round: R95, input ligand: none

Sequence: GUGGUCAGACAUGAGGAUCACCCAUGUGGAAUAAAUAACAGACAGGAUAUAUAAUAUAGGAUAUAGUAGAAGGGUCGAUUGGUG (Eterna round: R96, puzzle: Same State NG 3)
- apparent KD of MS2 coat protein [1]: 69.7 nM

Sequence: GGUAGGUUACUACCAAACAUGAGGAUCACCCAUGUUAAUGGGAAGGAUAUGGUACCUAUUUGGUACCAGAAGGUCCAAUUAAUU [JL Fiskers NG3ss - 2 mod 4] (Eterna round: R96, puzzle: Same State NG 3)
- apparent KD of MS2 coat protein (input ligand: FMN 200 uM): 70.4 nM
- apparent KD of MS2 coat protein [1]: 520 nM
- apparent KD of MS2 coat protein (input ligand: none): 493 nM

Sequence: AGUCCAGCCAAAGCUGGACAAAAGCAUGUACAUGAGGAUCACCCAUGUUCAUGUACAAGCUUUUUGCAAGUCAAAAU [Mat - hsa-mir-208a - Mod of JL - 78] (puzzle: Sensor for hsa-mir-208a)
- apparent KD of MS2 coat protein [2]: 542 nM
- apparent KD of MS2 coat protein [3]: 17.1 nM
- apparent KD of MS2 coat protein [4]: 433 nM

Sequence: AGCUAAAACGAAGGAUAUACAAACAUGAGGAUCACCCAUGUAUACAUGGUUUGUUGUGACCACAUGUAGAAGGUCGUACUAACA [SameState NG2 #18] (Eterna round: R96, puzzle: Same State NG 2)
- apparent KD of MS2 coat protein (input ligand: FMN 200 uM): 178 nM
- apparent KD of MS2 coat protein [1]: 405 nM
- apparent KD of MS2 coat protein (input ligand: none): 358 nM

Sequence: GGAGCCGGCACCGAGGAUAUUCAUAUUAAAACAUGAGGAUCACCCAUGUAGCUCGAAAGAGCUUGGGAGAAGGCGGAUCGGCUCG [Xeonanis - 29] (puzzle: Same State 2)
- apparent KD of MS2 coat protein [2]: 30.5 nM
- apparent KD of MS2 coat protein [3]: 1010 nM
- apparent KD of MS2 coat protein [4]: 827 nM

Sequence: AACAAUCUAUCUGAGGAUAUCAUGAAAAAAACAUGAGGAUCACCCAUGUGCAGGAAAACUGCAUAUGAGAAGGCAGAUAGAUUGC [salish99_SS2_r3_004] (puzzle: Same State 2)
- apparent KD of MS2 coat protein [2]: 32.5 nM
- apparent KD of MS2 coat protein [3]: 785 nM
- apparent KD of MS2 coat protein [4]: 1690 nM

Sequence: ACUCAGUACAAUUUAGAUCUACAUGAGGAUCACCCAUGUACUGAGGAUAUCAGCUCGUUUAGAGCUGAGAAGGCAGUUGUACUA [SSNG3/10-A3] (Eterna round: R96, puzzle: Same State NG 3)
- apparent KD of MS2 coat protein (input ligand: FMN 200 uM): 108 nM
- apparent KD of MS2 coat protein [1]: 221 nM
- apparent KD of MS2 coat protein (input ligand: none): 311 nM

Sequence: UGUUGUAUUACAGGAUAUCUAUGGUUUUUAUUUAGAGAAGGGUAUUCACAUGAGGAUCACCCAUGUAUAUACGAGGAAGUUGUG [JMF's solution 58] (Eterna round: R96, puzzle: Same State NG 1)
- apparent KD of MS2 coat protein [1]: 41.6 nM

Sequence: AUUAUACAUGAGGAUCACCCAUGUCAACGUAGUCGAGGAUAUGGGCAGCCGUGAGGCGUACUAGAAGGCGAAGAGA [Mat - Same State 1 - Mod of JL - D8] (puzzle: Same State 1)
- apparent KD of MS2 coat protein [2]: 84.3 nM
- apparent KD of MS2 coat protein [3]: 235 nM
- apparent KD of MS2 coat protein [4]: 385 nM

Sequence: AUUAAACAUGAGGAUCACCCAUGUCAACAAAGUCGAGGAUAUGGGCAAAUAAAAUAAGAACCAGAAGGCGAAUAAU [salish99_ss1_r3_048] (puzzle: Same State 1)
- apparent KD of MS2 coat protein [2]: 31.6 nM
- apparent KD of MS2 coat protein [3]: 357 nM
- apparent KD of MS2 coat protein [4]: 555 nM

Sequence: GGAUGAUUGACAGGAUAUCAUUUGUAAAUUCGAUGAGAAGGGUCGAUUACUUACACGACGUGUUACAUGAGGAUCACCCAUGUU [SameState NG1 #5] (Eterna round: R96, puzzle: Same State NG 1)
- apparent KD of MS2 coat protein (input ligand: FMN 200 uM): 53.7 nM
- apparent KD of MS2 coat protein [1]: 116 nM
- apparent KD of MS2 coat protein (input ligand: none): 148 nM

Sequence: UACAAUCUAUCUGAGGAUAUCAUGAAAAAAACAUGAGGAUCACCCAUGUGCAGGAAAACUGCAUAUGAGAAGGCAGAUAGAUUGC [salish99_SS2_r3_008] (puzzle: Same State 2)
- apparent KD of MS2 coat protein [2]: 34.1 nM
- apparent KD of MS2 coat protein [3]: 806 nM
- apparent KD of MS2 coat protein [4]: 1320 nM

Sequence: GUUACAUGAGGAUCACCCAUGUAUGUGUGGGAGUAAGUGUCUUAGGAUAUCUGUUAUUUAACUUAAGAGAAGGAAGAUUGUUGU [JMF's solution 43] (Eterna round: R96, puzzle: Same State NG 3)
- apparent KD of MS2 coat protein (input ligand: FMN 200 uM): 108 nM
- apparent KD of MS2 coat protein [1]: 65.4 nM
- apparent KD of MS2 coat protein (input ligand: none): 105 nM

Sequence: GGCGGAUCCACAUGAGGAUCACCCAUGUAGCGGAGACGCAAUGAGGAUAUCGAUGGGUUUCCCGUCGAGAAGGCAUAAACCGCC [JL SSNG3 3.93 mod 2] (Eterna round: R96, puzzle: Same State NG 3)
- apparent KD of MS2 coat protein (input ligand: FMN 200 uM): 17.8 nM
- apparent KD of MS2 coat protein [1]: 14.9 nM
- apparent KD of MS2 coat protein (input ligand: none): 16 nM

Sequence: GAGGGAUGAGCGUAGGAUAUAGGAGAAGUGACAUGAGGAUCACCCAUGUAGGAGGAGGGAUGAGACUAGAAGGACGAGGUAGGAG [JR_SS2_Sub061] (puzzle: Same State 2)
- apparent KD of MS2 coat protein [2]: 37.5 nM
- apparent KD of MS2 coat protein [3]: 54.7 nM
- apparent KD of MS2 coat protein [4]: 67.9 nM

Sequence: CAGCGCUGUCGAGAGGAUAUGCGGUGAUGGACAUGAGGAUCACCCAUGUUAGCGACAGCAUCACGGCAGAAGGCUCUACCGCUGG [Soteed Omei mod 42] (puzzle: Same State 2)
- apparent KD of MS2 coat protein [2]: 12.6 nM
- apparent KD of MS2 coat protein [3]: 9.78 nM
- apparent KD of MS2 coat protein [4]: 9.61 nM

Sequence: CUGAGCAAUCAAGGAUAUCACGUCGAUUAGACGUGAGAAGGUGAUCAUUACAUGAGGAUCACCCAUGUGUUACAUGGAGCUCAG [Brourd's SSNG1/1-A2 mod 3] (Eterna round: R96, puzzle: Same State NG 1)
- apparent KD of MS2 coat protein (input ligand: FMN 200 uM): 395 nM
- apparent KD of MS2 coat protein [1]: 54.9 nM
- apparent KD of MS2 coat protein (input ligand: none): 159 nM

Sequence: AAUUAUUAACAUGAGGAUCACCCAUGUAAAACAUGGAUUAACAAGCCUUUUCGUUUUUGCUCGUCUUAUAUUAUUAA [Bojan's Design] (puzzle: Sensor for hsa-mir-208a version 2)
- apparent KD of MS2 coat protein [2]: 167 nM
- apparent KD of MS2 coat protein [4]: 199 nM

Sequence: GCGAGCGUACUUGCUACAUGAGGAUCACCCAUGUUCGUUGGACAGGAUAUGGUACCGUUUCGGUACCAGAAGGGUUCAUCAUGA [JL SSNG3 3.76] (Eterna round: R96, puzzle: Same State NG 3)
- apparent KD of MS2 coat protein (input ligand: FMN 200 uM): 75.7 nM
- apparent KD of MS2 coat protein [1]: 147 nM
- apparent KD of MS2 coat protein (input ligand: none): 241 nM

Sequence: AAUUAAGAUCAAGGAUAUCACGUCGUUUAGACGUGAGAAGGUGAUCCAUACAUGAGGAUCACCCAUGUAUAACAUGAAUUAAUU [SSNG1/8-B3] (Eterna round: R96, puzzle: Same State NG 1)
- apparent KD of MS2 coat protein (input ligand: FMN 200 uM): 180 nM
- apparent KD of MS2 coat protein [1]: 1160 nM
- apparent KD of MS2 coat protein (input ligand: none): 698 nM

Sequence: AAAAUAUAAAGAGAGGAUAUCCAAAGAACCACAUGAGGAUCACCCAUGUAAAGAAAGAAUAAGUGGGAGAAGGCUCAAAUAAUAA [Designing denovo 24] (Eterna round: R96, puzzle: Same State 2)
- apparent KD of MS2 coat protein (input ligand: FMN 200 uM): 24.8 nM
- apparent KD of MS2 coat protein [1]: 82.8 nM
- apparent KD of MS2 coat protein (input ligand: none): 114 nM

Sequence: CAGCACUAUCGAGAGGAUAUGCGGUGAUGGACAUGAGGAUCACCCAUGUUAGCGAUAGCAUCACGGCAGAAGGCUCUGCUGCUGC [Soteed Omei mod 37] (puzzle: Same State 2)
- apparent KD of MS2 coat protein [2]: 10.6 nM
- apparent KD of MS2 coat protein [3]: 17.6 nM
- apparent KD of MS2 coat protein [4]: 24.1 nM

Sequence: GCUAGAAUAAAAGCCAACAUGAGGAUCACCCAUGUAUGUUGGCAGGAUAUCGUUUGCAAAGCAAACGAGAAGGGCCAUACUAGC [Mat - Same State NG 3 - JL Mod - D23] (Eterna round: R96, puzzle: Same State NG 3)
- apparent KD of MS2 coat protein (input ligand: FMN 200 uM): 45.1 nM
- apparent KD of MS2 coat protein [1]: 109 nM
- apparent KD of MS2 coat protein (input ligand: none): 117 nM

Sequence: AAACUACAUGAGGAUCACCCAUGUGAAAACCGCAUAGGAUAUCCGCAGCAAUAAACUGACGGAGAAGGGUGACCGG [Sobearcege] (puzzle: Same State 1)
- apparent KD of MS2 coat protein [2]: 306 nM
- apparent KD of MS2 coat protein [3]: 414 nM
- apparent KD of MS2 coat protein [4]: 549 nM

Sequence: GAAGCGGCAGAAUAAAACAUGAGGAUCACCCAUGUCGCGGUUUAGGAUAUGGGACGGGUAUGAACCCAGAAGGAGACCGCAGGC [Eternabot solution 2] (Eterna round: R96, puzzle: Same State NG 3)
- apparent KD of MS2 coat protein (input ligand: FMN 200 uM): 32.7 nM
- apparent KD of MS2 coat protein [1]: 33.8 nM
- apparent KD of MS2 coat protein (input ligand: none): 56.2 nM

Sequence: CUACGCGCCGCAGGAUAUGCCGACCCGUGUUGAGCAGAAGGGCGAAACAUGAGGAUCACCCAUGUUGAAAGAGCGCAAAAUUAA [Erteerte] (Eterna round: R96, puzzle: Same State NG 1)
- apparent KD of MS2 coat protein (input ligand: FMN 200 uM): 23.5 nM
- apparent KD of MS2 coat protein [1]: 16.4 nM
- apparent KD of MS2 coat protein (input ligand: none): 30.1 nM

Sequence: AGAUCAUGACGAGGAUAUGGUACAUGAGGAUCACCCAUGUAUGUACUAUAAUUCGAAUGAGGAAUCCAGAAGGCGUCGUGGUCA [JL SSNG2 1.15] (Eterna round: R96, puzzle: Same State NG 2)
- apparent KD of MS2 coat protein (input ligand: FMN 200 uM): 15.3 nM
- apparent KD of MS2 coat protein [1]: 29.6 nM
- apparent KD of MS2 coat protein (input ligand: none): 55.4 nM

Sequence: AUUUUUAAUGCAGGAUAUGAUUAACAUGAGGAUCACCCAUGUGGUGUUGUGAGUAAGGAGAGUGAUCAGAAGGGCAUUUUUAUU [JMF's solution 84] (Eterna round: R96, puzzle: Same State NG 2)
- apparent KD of MS2 coat protein (input ligand: FMN 200 uM): 1180 nM
- apparent KD of MS2 coat protein [1]: 450 nM
- apparent KD of MS2 coat protein (input ligand: none): 615 nM

Sequence: GUUACAUGAGGAUCACCCAUGUAUGUGUGGGAGUAAGUGUCUUAGGAUAUCUAGUAUUUAAGUUAAGAGAAGGAAGAUUGUUGU [JMF's solution 62] (Eterna round: R96, puzzle: Same State NG 3)
- apparent KD of MS2 coat protein (input ligand: FMN 200 uM): 129 nM
- apparent KD of MS2 coat protein [1]: 78 nM
- apparent KD of MS2 coat protein (input ligand: none): 114 nM

Sequence: CGUCCGGCCUGUGCUGGCCGGUCGCUUGUACAUGAGGAUCACCCAUGUUCUUGUGCUGGCUUUUUGCUCGUCUUGUG [salish99_mir208a_020] (puzzle: Sensor for hsa-mir-208a)
- apparent KD of MS2 coat protein [2]: 27.1 nM
- apparent KD of MS2 coat protein [3]: 17.7 nM
- apparent KD of MS2 coat protein [4]: 31 nM

Sequence: UUUAGUUGCGCGCAGGAUAUGUAUUAAUAUACAUGAGGAUCACCCAUGUGAGAUCGAAUAGAUCUGCAGAAGGGCGAAUCGCGAC [Laonerce - 27] (puzzle: Same State 2)
- apparent KD of MS2 coat protein [2]: 52.7 nM
- apparent KD of MS2 coat protein [3]: 361 nM
- apparent KD of MS2 coat protein [4]: 772 nM
